Article PMC10454150, “Molecular Mechanism of a FRET Biosensor for the Cardiac Ryanodine Receptor Pathologically Leaky State” (International Journal of Molecular Sciences, 2023)
Ends that are not written are not given here. QXL520 = non-fluorescent dark acceptor (quencher) probe

B1: acceptor-labeled DPc10 (A-DPc10), QXL520 at the N-terminus (peptide)
peptide: QXL520-GFCPDHKAAMVLFLDRVYGIEVQDFLLHLLEVGFLP
notes: also called acceptor-DPc10; source: synthetic peptide (AnaSpec)

Experiments:
[1] = molecular target: type 2 ryanodine receptor (RyR2) channel in cardiac SR membranes (pig (endogenous in porcine heart SR)); assay: FRET or BRET; as a1 but 300 uM Ca2+, no DPc10
[2] = molecular target: type 2 ryanodine receptor (RyR2) channel in cardiac SR membranes (pig (endogenous in porcine heart SR)); assay: FRET or BRET; as a1, 30 nM Ca2+, SR pre-treated with 50 uM unlabeled DPc10 for 60 min; apparent affinity
[3] = molecular target: T1, type 2 ryanodine receptor (RyR2) channel in cardiac SR membranes (pig (endogenous in porcine heart SR), UniProt A0A5G2R1W3 1-4900); assay: FRET or BRET; as a6 but 300 uM Ca2+, no CaM; Hill fit; settings: one partner purified
T1 construct: type 2 ryanodine receptor (RyR2), pig heart; homotetrameric assembly of 565-kDa protomers; 'intact RyR2 in cardiac SR vesicles'; In every assay RyR2 stood in native SR membranes and was preloaded with a donor-labelled FKBP12.6 (D-FKBP); also called cardiac ryanodine receptor; source: endogenous, SR vesicles isolated by differential ultracentrifugation of porcine ventricular tissue; residual …

[4] = molecular target: T1, type 2 ryanodine receptor (RyR2) …; assay: FRET or BRET; as a6, 30 nM Ca2+, pre-incubated 40 min with unlabeled CaM (1 uM by the legend, 30 uM by the text); apparent affinity; Hill fit; settings: one partner purified
[5] = molecular target: T1, type 2 ryanodine receptor (RyR2) …; assay: FRET or BRET; FRET from D-49-FKBP on RyR2 in cardiac SR to A-DPc10, series of [A-DPc10]; Ca2+ not stated for this experiment; Hill fit; settings: one partner purified
[6] = molecular target: T1, type 2 ryanodine receptor (RyR2) …; assay: FRET or BRET; FRET from D-85-FKBP on RyR2 in cardiac SR to A-DPc10, series of [A-DPc10]; Ca2+ not stated for this experiment; Hill fit; settings: one partner purified
[7] = molecular target: T1, type 2 ryanodine receptor (RyR2) …; assay: FRET or BRET; FRET from D-32-FKBP (loss-of-inhibition variant) on RyR2 in cardiac SR to A-DPc10, series of [A-DPc10]; Ca2+ not stated for this experiment; Hill fit; settings: one partner purified
[8] = molecular target: T1, type 2 ryanodine receptor (RyR2) …; assay: FRET or BRET; FRET from D-FKBP (labelled position not stated for this experiment) on RyR2 in cardiac SR to A-DPc10 (QXL520), series of [A-DPc10]; 30 nM Ca2+, no CaM; Hill fit; settings: one partner purified
[9] = molecular target: T1, type 2 ryanodine receptor (RyR2) …; assay: FRET or BRET; FRET from D-14-FKBP on RyR2 in cardiac SR to A-DPc10, series of [A-DPc10]; Ca2+ not stated for this experiment; Hill fit; settings: one partner purified
[10] = molecular target: T1, type 2 ryanodine receptor (RyR2) …; assay: FRET or BRET; as a6 but 300 uM Ca2+, pre-incubated 40 min with unlabeled CaM (1 uM by the legend, 30 uM by the text); apparent affinity; Hill fit; settings: one partner purified
[11] = molecular target: T1, type 2 ryanodine receptor (RyR2) …; assay: FRET or BRET; FRET from D-FKBP (labelled position not stated for this experiment) on RyR2 in cardiac SR to A-DPc10 (QXL520), series of [A-DPc10]; 30 nM Ca2+, no CaM; Hill fit; settings: one partner purified; remark: listed apart in the source

Molecule	fold higher affinity in 300 uM Ca2+ against 30 nM Ca2+ [1]	fold decrease of apparent affinity with 50 uM DPc10 against no DPc10 [2]	Kd [3]	Kd [4]	Kd [5]	Kd [6]	Kd [7]	Kd [8]	Kd [9]	Kd [10]	Kd [11]
acceptor-labeled calmodulin (A-CaM), Alexa Fluor 555 at a cysteine substituted at position 34 (natural protein)	2.7 fold	4 fold									
B1			13.2 µM	14.6 µM	9.9 µM	10.4 µM	13.1 µM	10.4 µM	10 µM	33.9 µM	10.3 µM
